Paper PMC11109203 (2024)
Substitutions are numbered along the chain they refer to. In names and notes the source's numbering stands.

B1: Sad1_(1-169) (domain or fragment)
chain: MFTNTPVGGKRERQNGAHPAWSTLGANSAQIHQNTADLASKMHKLRYTKIRSPPTRVSIESITPKQRFPAPNFEQAYHSNIRYEQEESDNEEFENVVKNGHEASTNVFYESDGDDEEFVNEEYENSIDEESDDEGYSLNEDTTATNASFRYPMNQRSTRKSQFYSSKFK
B2: Sad1_(60-169) (domain or fragment)
chain: ESITPKQRFPAPNFEQAYHSNIRYEQEESDNEEFENVVKNGHEASTNVFYESDGDDEEFVNEEYENSIDEESDDEGYSLNEDTTATNASFRYPMNQRSTRKSQFYSSKFK
B3: Sad1_(60-169) with charge-reverse mutations of D114 and E117 (domain or fragment)
chain: B2 chain with D55R, E58R
B4: Sad1_(60-169) F118R (domain or fragment)
chain: B2 chain with F59R
B5: FITC labeled Clr3 (enzyme)
chain: MLASNSDGASTSVKPSDDAVNTVTPWSILLTNNKPMSGSENTLNNESHEMSQILKKSGLCYDPRMRFHATLSEVDDHPEDPRRVLRVFEAIKKAGYVSNVPSPSDVFLRIPAREATLEELLQVHSQEMYDRVTNTEKMSHEDLANLEKISDSLYYNNESAFCARLACGSAIETCTAVVTGQVKNAFAVVRPPGHHAEPHKPGGFCLFNNVSVTARSMLQRFPDKIKRVLIVDWDIHHGNGTQMAFYDDPNVLYVSLHRYENGRFYPGTNYGCAENCGEGPGLGRTVNIPWSCAGMGDGDYIYAFQRVVMPVAYEFDPDLVIVSCGFDAAAGDHIGQFLLTPAAYAHMTQMLMGLADGKVFISLEGGYNLDSISTSALAVAQSLLGIPPGRLHTTYACPQAVATINHVTKIQSQYWRCMRPKHFDANPKDAHVDRLHDVIRTYQAKKLFEDWKITNMPILRDSVSNVFNNQVLCSSNFFQKDNLLVIVHESPRVLGNGTSETNVLNLNDSLLVDPVSLYVEWAMQQDWGLIDINIPEVVTDGENAPVDILSEVKELCLYVWDNYVELSISKNIFFIGGGKAVHGLVNLASSRNVSDRVKCMVNFLGTEPLVGLKTASEEDLPTWYYRHSLVFVSSSNECWKKAKRAKRRYGRLMQSEHTETSDMMEQHYRAVTQYLLHLLQKARPTSQ
modifications: FITC label

Tests used:
[1] = target: B5; assay: MST
[2] = target: H2AB with H2B Y42R (S. pombe, UniProt P04913 32-126; P04909 15-108, Y42R); assay: ITC
[3] = target: S. pombe H2AB fusion protein (H2B_(32-126)-H2A_(15-108)) (S. pombe, UniProt P04913 32-126; P04909 15-108); assay: ITC
[4] = target: H2AB with H2A R79E (S. pombe, UniProt P04913 32-126; P04909 15-108, R79E); assay: ITC
[5] = target: Sad1_(1-169)-H2AB complex (S. pombe, UniProt Q09825 1-169; P04913 32-126; P04909 15-108); assay: MST; mixture of Sad1 and H2AB
[6] = target: Sad1_(1-169)-5R (S. pombe, UniProt Q09825 1-169, D114R | E117R | F118R | E121R | E122R); assay: MST; mixture of Sad1-5R and H2AB

## B1
[1]
  Kd: 42.9 µM

## B2
[2]
  Kd: 44.8 µM
[3]
  Kd: 9.1 µM
[4]
  Kd: 90.1 µM

## B3
[3]
  Kd: 73.5 µM

## B4
[3]
  Kd: > 200 µM

## B5
[5]
  Kd: 10.3 µM
[6]
  Kd: 47.2 µM
